Test results reported in patent publication US7816094B2, “Method for quantitative analysis of interactions between HIF-1alpha C-terminal peptides and CBP or p300 proteins and method of screening inhibitors using the same” (Korea Institute of Science and Technology, priority 2006, dated 2010).
Ends that are not written are not given here. * marks the point of attachment. FITC = O=C1OC2(c3ccc(O)cc3Oc3cc(O)ccc32)c2ccc(NC(=S)*)cc21; Ahx = NCCCCCC(=O)O

Tests used:
[1] = biological target: T1, GST-CBP (truncated human CBP, amino acids 1-450) (Homo sapiens, UniProt Q92793); assay: Fluorescence polarization (FP)-based binding assay of fluorescein-labeled HIF-1α peptides with GST-CBP; details: GST-CBP 0 to 3000 nM; FIG. 2A
T1 construct: made in house; host or cells: E. coli BL21
T1 sequence (Q92793 1-450): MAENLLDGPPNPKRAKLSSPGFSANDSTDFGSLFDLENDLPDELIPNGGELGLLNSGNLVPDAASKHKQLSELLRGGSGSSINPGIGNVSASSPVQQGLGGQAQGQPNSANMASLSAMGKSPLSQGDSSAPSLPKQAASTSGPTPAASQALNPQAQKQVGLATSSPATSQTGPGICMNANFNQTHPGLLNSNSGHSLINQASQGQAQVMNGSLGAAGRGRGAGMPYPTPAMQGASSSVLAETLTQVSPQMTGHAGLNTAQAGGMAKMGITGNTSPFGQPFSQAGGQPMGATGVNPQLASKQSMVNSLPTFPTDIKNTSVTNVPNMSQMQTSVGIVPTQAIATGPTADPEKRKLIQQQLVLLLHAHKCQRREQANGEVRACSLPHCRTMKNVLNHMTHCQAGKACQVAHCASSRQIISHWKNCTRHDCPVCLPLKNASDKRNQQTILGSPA
Experimental: (§1) The binding affinity and features between the HIF-1α peptides and CBP or p300 proteins were analyzed by measuring the fluorescence polarization (FP) values that were changed by the formation of a protein-ligand complex through the interaction between the CBP or p300 proteins and the synthesized peptides that were manufactured by the method as described in above Example 1. The FP values were measured with a fluorescence spectrometer (Perkin-Elmer), which was set to have a slit width of 5 nm and a total integration time of 5 seconds. EBC Buffer (50 mM Tris and 120 mM NaCl; pH 8.0, 0.25% Nonidet P (NP)-40) was used for the binding reaction.
Because the cysteine-/histidine-rich 1(CH1) domain of CBP or p300 proteins that binds the C-terminal transactivation domain (C-TAD) of HIF-1α contains the Zn^2+-coordinating centers, an embodiment of the present invention first tested for the importance of Zn^2+ added in the preparation of CBP or p300 proteins by cell lysis and protein elution on their binding to the HIF-1α-derived peptides, wherein the GST-CBP or GST-p300 proteins containing the CH1 domain were prepared by cell lysis and protein elution in the presence or absence of ZnSO4. […] Then, the FP (fluorescence polarization) values were measured. […]

[2] = biological target: T2, GST-p300 (truncated p300, amino acids 1-221) (Homo sapiens, UniProt Q09472); assay: Fluorescence polarization (FP)-based binding assay of fluorescein-labeled HIF-1α peptides with GST-p300; details: increasing GST-p300 concentrations; FIG. 2B, 3B, 4C, 5B, 5D
T2 construct: made in house; host or cells: E. coli BL21
T2 sequence (Q09472 300-520): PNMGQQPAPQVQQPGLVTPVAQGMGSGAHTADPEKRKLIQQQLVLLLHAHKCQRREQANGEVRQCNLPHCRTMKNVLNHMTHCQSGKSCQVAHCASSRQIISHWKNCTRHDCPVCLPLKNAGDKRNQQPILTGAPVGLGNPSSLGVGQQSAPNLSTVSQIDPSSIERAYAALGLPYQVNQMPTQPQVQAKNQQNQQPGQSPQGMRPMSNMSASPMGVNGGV
Experimental: as §1
Because the cysteine-/histidine-rich 1(CH1) domain of CBP or p300 proteins that binds the C-terminal transactivation domain (C-TAD) of HIF-1α contains the Zn^2+-coordinating centers, an embodiment of the present invention first tested for the importance of Zn^2+ added in the preparation of CBP or p300 proteins by cell lysis and protein elution on their binding to the HIF-1α-derived peptides, wherein the GST-CBP or GST-p300 proteins containing the CH1 domain were prepared by cell lysis and protein elution in the presence or absence of ZnSO4. 800 nM of CBP or p300 proteins in the EBC Buffer prepared from above Example 1 were mixed with 100 nM of F-HIF-1α(776-826, SEQ ID NO: 3) and F-HIF-1α(786-826, SEQ ID NO: 4) peptides at 25° C., respectively. Then, the FP (fluorescence polarization) values were measured.
To compare interactions between the four peptides derived from different regions in HIF-1α C-TAD with CBP or p300, these fluorescein-labeled HIF-1α peptides were mixed with CBP proteins at varying concentrations from 0 to 3000 nM under the conditions of above Example 2-2, and then the FP (fluorescence polarization) values were measured (FIG. 2A).
The dissociation constants of these two peptides were determined to be 157.3 nM for HIF-1α(776-826, SEQ ID NO: 3) and 180.1 nM for HIF-1α(786-826, SEQ ID NO: 4), respectively.

[3] = biological target: T3, GST-p300 / F-HIF-1α-(786-826, SEQ ID NO: 4) interaction (Homo sapiens, UniProt Q09472); assay: Competitive inhibition analysis of the FP-based binding assay (F-HIF-1α-p300 interaction); details: compared with wild-type peptide; FIG. 6
T3 construct: made in house; host or cells: E. coli BL21 for GST-p300; the tracer peptide was synthesized by Anygen
T3 sequence (Q09472 300-520): as above
Experimental: To compare the importance of Thr-796, Cys-800, and Asn-803 residues in the HIF-1α peptide on its p300 binding activity, an embodiment of the present invention performed competitive inhibition analyses of the FP-based binding assays using single mutant peptides. The mutant peptides were prepared with the method as described below.
Namely, human HIF-1α-(786-826, SEQ ID NO: 4) and its single mutation products prepared by PCR were subcloned into pGEX-2T-1 (Amersham Biosciences), and overexpressed in E. coli BL21 (DE3). After the GST fusion proteins were purified using glutathione-SEPHAROSE (Amersham Biosciences), followed by GST removal with thrombin treatment, the resulting peptides were purified using reverse-phase HPLC and confirmed by MALDI-TOF mass spectrometry. The results of competitive inhibition for HIF-1α-(786-826, SEQ ID NO: 4) peptides with point mutations on the HIF-1α-p300 interaction are depicted in FIG. 6.

Substance	FP values (change) upon mixing with GST-CBP [1]	FP values (change) upon mixing with GST-p300 [2]	competitive inhibition of F-HIF-1α-(786-826, SEQ ID NO: 4) binding to p300 [3]
FITC-ACA-DESGLPQLTSYDCEVNAPIQGSRNLLQGEELLRAL ({FITC-Ahx}-DESGLPQLTSYDCEVNAPIQGSRNLLQGEELLRAL) [HIF-1α(788-822, SEQ ID NO: 6), fluorescein (FITC)-labeled HIF-1α C-terminal peptide, residues 788-822, aminocaproic acid linker]	increased much less than those of the above two peptides	increased much less than those of the above two peptides	–
N803A: unlabeled HIF-1α (786-826) peptide with single mutation N803A (SMDESGLPQLTSYDCEVAAPIQGSRNLLQGEELLRALDQVN; Amino acid sequence for HIF-1a(786-826))	–	–	to a little lesser degrees than the wild-type
T796D: unlabeled HIF-1α (786-826) peptide with single mutation T796D (SMDESGLPQLDSYDCEVNAPIQGSRNLLQGEELLRALDQVN; Amino acid sequence for HIF-1a(786-826))	–	–	to a little lesser degrees than the wild-type
FITC-ACA-SDLACRLLGQSMDESGLPQLTSYDCEVNAPIQGSRNLLQ ({FITC-Ahx}-SDLACRLLGQSMDESGLPQLTSYDCEVNAPIQGSRNLLQ; cysteine pairing not given here) [HIF-1α(776-814, SEQ ID NO: 5), fluorescein (FITC)-labeled HIF-1α C-terminal peptide, residues 776-814, aminocaproic acid linker]	no increase up to 3000 nM of GST-CBP	no increase upon incubation with GST-p300	–
S-nitrosylated F-HIF-1α (786-826, SEQ ID NO: 4): F-HIF-1α (786-826, SEQ ID NO: 4) treated with SNAP, S-nitrosylated on Cys-800, purified by reverse-phase HPLC	–	only minimal increase in FP with increasing p300 concentrations	–
hydroxylated peptide: F-HIF-1α (786-826, SEQ ID NO: 4) hydroxylated on asparagine by recombinant His-FIH-1, purified by reverse-phase HPLC	–	only slightly increased with increasing p300 concentrations	–
peptide treated with N or H kinase fractions: F-HIF-1α (786-826, SEQ ID NO: 4) phosphorylated by normoxic or hypoxic HeLa kinase fractions, purified by reverse-phase HPLC	–	FP increase upon incubation with GST-p300, similar to the untreated peptide	–
